The results in this text go back to patent US20040092712A1 (published 2004).

One assay concerns the target F1024-1-3 antibody. Description: competition ELISA: 4-fold diluted serum mixed with 1 µg/mL peroxidase-labeled F1024-1-3 on immobilised human sCD14(1-356). Background: In an ELISA, binding on a coated surface is turned into a signal by an enzyme label.
A further assay deals with T1, sCD14(1-307)S286C (human, UniProt P08571 20-326).
T1 construct: CD14 mutant polypeptide expressed in COS-1 cells; also called CD14(s286C)
T1 sequence: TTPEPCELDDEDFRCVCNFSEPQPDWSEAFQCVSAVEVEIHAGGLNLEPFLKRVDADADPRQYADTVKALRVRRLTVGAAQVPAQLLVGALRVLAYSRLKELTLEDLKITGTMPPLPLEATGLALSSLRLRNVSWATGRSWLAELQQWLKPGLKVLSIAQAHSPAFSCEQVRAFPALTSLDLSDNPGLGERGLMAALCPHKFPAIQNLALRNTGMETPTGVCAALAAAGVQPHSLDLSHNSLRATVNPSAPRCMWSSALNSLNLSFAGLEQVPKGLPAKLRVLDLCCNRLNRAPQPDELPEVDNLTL
Nature of the assay: BIACORE 3000, injected over immobilised sCD14(1-356), no LPS. A general note: Surface plasmon resonance follows binding to a sensor surface in real time, without labels.

B1: human serum-derived soluble type CD14 (receptor)
chain: TTPEPCELDDEDFRCVCNFSEPQPDWSEAFQCVSAVEVEIHAGGLNLEPFLKRVDADADPRQYADTVKALRVRRLTVGAAQVPAQLLVGALRVLAYSRLKELTLEDLKITGTMPPLPLEATGLALSSLRLRNVSWATGRSWLAELQQWLKPGLKVLSIAQAHSPAFSCEQVRAFPALTSLDLSDNPGLGERGLMAALCPHKFPAIQNLALRNTGMETPTGVCAALAAAGVQPHSLDLSHNSLRATVNPSAPRCMWSSALNSLNLSFAGLEQVPKGLPAKLRVLDLSCNRLNRAPQPDELPEVDNLTLDGNPFLVPGTALPHEGSMNSGVVPACARSTLSVGVSGTLVL
As to B1, the inhibition ratio of binding of F1024-1-3 antibody to human CD14 with F1024-1-3 antibody was determined as 83%.

B2: sCD14(1-356) (receptor)
chain: TTPEPCELDDEDFRCVCNFSEPQPDWSEAFQCVSAVEVEIHAGGLNLEPFLKRVDADADPRQYADTVKALRVRRLTVGAAQVPAQLLVGALRVLAYSRLKELTLEDLKITGTMPPLPLEATGLALSSLRLRNVSWATGRSWLAELQQWLKPGLKVLSIAQAHSPAFSCEQVRAFPALTSLDLSDNPGLGERGLMAALCPHKFPAIQNLALRNTGMETPTGVCAALAAAGVQPHSLDLSHNSLRATVNPSAPRCMWSSALNSLNLSFAGLEQVPKGLPAKLRVLDLSCNRLNRAPQPDELPEVDNLTLDGNPFLVPGTALPHEGSMQSVVVPACARSTLSVGVSGTLVLLQGARGFA
notes: Expressed from pM1656 in COS-1 cells; GPI-anchoring sites Asn326 and Gly328 replaced by Gln and Val to give a soluble protein; In the BIACORE experiments it stood as a complex with LPS or FITC-LPS; also called full-length type human soluble CD14; recombinant soluble type CD14
Turning to B2, in the assay with sCD14(1-307)S286C, the binding result is “no binding (tested: 10 µg/mL)”.

B3: rhesus monkey soluble type CD14 (serum) (receptor)
chain: TTPEPCELDDEDFRCVCNFSEPHPDWSEAFQCVSAVEVEIRVGGLSLEPFLTRVDPDADPRQYADTIKALRVRRLTVGAAQVPAQLLVGALRVLAYSRLQELTLEDLEITGTMPPLPLEATGLALSSLRLHNVSWATGRSWLAELQQWLKPGLKVLSIAQAHSPAFSCEQVRAFPALTSLDLSDNPGLGERGLIAALCPHKFPALQNLALRNTGMETPTGVCAALAAAGVQPHSLDLSHNSLRATANPSAPRCMWSSALNSLNLSFAGLEQVPKGLPAKLRVLDLSCNRLNRRPRPDELPQVDNLALDGNPFLVPGTALPQEGSMN
As for B3, the inhibition ratio of binding of F1024-1-3 antibody to human CD14 with F1024-1-3 antibody was determined as 44%.

B4: crab-eating macaque soluble type CD14 (serum) (receptor)
chain: TTPEPCELDDEDFRCVCNFSEPHPDWSEAFQCVSAVEVEIRVGGLSLEPFLTRVDPDADPRQYADTIKALRVRRLTVGAAQVPAQLLVGALRVLAYSRLQELTLEDLEITGTMPPLPLEATGLALSSLRLHNVSWATGRSWLAELQQWLKPGLKVLSIAQAHSPAFSCEQVRAFPALTSLDLSDNPGLGERGLIAALCPHKFPALQNLALRNTGMETPTGVCAALAAAGVQPHSLDLSHNSLRATANPSAPRCMWSSALNSLNLSFAGLEQVPKGLPAKLRVLDLSCNRLNRRPRPDELPQVDNLALDGNPFLVPGTALPQEGSMN
Regarding B4, the inhibition ratio of binding of F1024-1-3 antibody to human CD14 with F1024-1-3 antibody is 57%.

B5: rabbit soluble type CD14 (rabbit serum) (receptor, rabbit (New Zealand white), UniProt Q28680 18-342, looked up)
chain: STDTPEPCELDDDDIRCVCNFSDPQPDWSSALQCMPAVQVEMWGGGHSLEQFLRQADLYTDQRRYADVVKALRVRRLTVGAVQVPAPLLLGVLRVLGYSRLKELALEDIEVTGTAPPPPPLEATGPALSTLSLRNVSWPKGGAWLSELQQWLKPGLQVLNIAQAHTLAFSCEQVRTFSALTTLDLSENPGLGERGLVAALCPHKFPALQDLALRNAGMKTLQGVCAALAEAGVQPHHLDLSHNSLRADTQRCIWPSALNSLNLSFTGLQQVPKGLPAKLNVLDLSCNKLNRAPQPGELPKVVNLSLDGNPFLVPGASKLQEDLTN
As to B5, the inhibition ratio of binding of F1024-1-3 antibody to human CD14 with F1024-1-3 antibody was found to be 52%.
